From patent publication US20100087368A1

Tests used:
rat Protein C (rat) = rat Protein C (rat) (UniProt P31394); experiment: cell-based or functional assay
[1] = target: T1, rat soluble thrombomodulin (rat sTM)
T1 chain: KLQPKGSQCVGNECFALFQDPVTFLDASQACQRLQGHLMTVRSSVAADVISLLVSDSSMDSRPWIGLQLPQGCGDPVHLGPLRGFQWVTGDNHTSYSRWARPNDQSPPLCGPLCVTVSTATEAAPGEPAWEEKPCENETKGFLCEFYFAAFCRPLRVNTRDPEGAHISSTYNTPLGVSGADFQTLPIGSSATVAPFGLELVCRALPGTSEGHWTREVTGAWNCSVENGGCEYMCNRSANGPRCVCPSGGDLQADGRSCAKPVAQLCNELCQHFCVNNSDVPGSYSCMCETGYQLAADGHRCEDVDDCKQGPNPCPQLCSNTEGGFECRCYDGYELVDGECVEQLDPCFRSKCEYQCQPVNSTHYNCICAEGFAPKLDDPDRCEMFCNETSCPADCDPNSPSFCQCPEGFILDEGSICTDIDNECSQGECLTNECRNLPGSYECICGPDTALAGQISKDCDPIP

[2] = target: T2, human soluble thrombomodulin (human sTM)
T2 chain: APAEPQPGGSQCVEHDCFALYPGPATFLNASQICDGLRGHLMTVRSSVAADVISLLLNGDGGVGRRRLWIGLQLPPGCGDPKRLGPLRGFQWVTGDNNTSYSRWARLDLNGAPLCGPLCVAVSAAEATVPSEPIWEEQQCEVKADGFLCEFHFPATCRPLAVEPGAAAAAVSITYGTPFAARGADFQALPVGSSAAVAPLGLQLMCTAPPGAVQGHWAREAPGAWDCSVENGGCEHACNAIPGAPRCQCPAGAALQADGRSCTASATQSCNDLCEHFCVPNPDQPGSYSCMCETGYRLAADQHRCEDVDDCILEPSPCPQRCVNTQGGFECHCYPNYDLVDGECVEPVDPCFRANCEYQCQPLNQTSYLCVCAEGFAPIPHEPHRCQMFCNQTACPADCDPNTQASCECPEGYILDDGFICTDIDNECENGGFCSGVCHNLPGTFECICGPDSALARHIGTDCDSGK

human sTM variant F376L = target: T3, human sTM variant F376L
T3 chain: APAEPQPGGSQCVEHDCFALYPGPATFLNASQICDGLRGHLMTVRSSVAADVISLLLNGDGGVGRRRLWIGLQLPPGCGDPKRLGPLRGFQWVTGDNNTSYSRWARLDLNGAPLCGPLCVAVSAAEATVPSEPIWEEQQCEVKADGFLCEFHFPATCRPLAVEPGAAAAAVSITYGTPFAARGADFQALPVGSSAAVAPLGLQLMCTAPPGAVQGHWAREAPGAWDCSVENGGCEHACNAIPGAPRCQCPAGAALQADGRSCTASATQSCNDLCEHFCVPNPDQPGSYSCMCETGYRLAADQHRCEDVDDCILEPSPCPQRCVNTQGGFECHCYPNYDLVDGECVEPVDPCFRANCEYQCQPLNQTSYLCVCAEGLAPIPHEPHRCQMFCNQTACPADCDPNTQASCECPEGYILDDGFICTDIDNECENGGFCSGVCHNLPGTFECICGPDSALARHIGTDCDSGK

endogenous human thrombomodulin on human aortic endothelial cells (from UniProt P07204 19-575) (receptor)
percent PC activation in the presence of rat thrombin, against human thrombin with human Protein C as 100% (human aortic endothelial cells, chromogenic substrate) (rat Protein C (rat)): 0%

endogenous human thrombomodulin on human aortic endothelial cells (from UniProt P07204 19-575)
percent PC activation in the presence of human thrombin, against human thrombin with human Protein C as 100% (human aortic endothelial cells, chromogenic substrate) (rat Protein C (rat)): 12.8%

B1: rat Protein C (protein)
chain: ANSFLEEVRAGSLERECMEEICDFEEAQEIFQNVEDTLAFWIKYFDGDQCSTPPLDHQCDSPCCGHGTCIDGLGGFSCSCDKGWEGRFCQQEMGFQDCRVKNGGCYHYCLEETRGRRCRCAPGYELADDHMHCRPTVNFPCGKLWKRTDKKRKNFKRDIDPEDEELELGPRIVNGTLTKQGDSPWQAILLDSKKKLACGGVLIHTSWVLTAAHCLESSKKLTVRLGEYDLRRRDPWELDLDIKEVLVHPNYTRSNSDNDIALLRLSQPATLSKTIVPICLPNSGLAQELSQAGQETVVTGWGYQSDKVKDGRRNRTFILTFIRIPLAARNDCMQVMNNVVSENMLCAGIIGDTRDACDGDSGGPMVVFFRGTWFLVGLVSWGEGCGHLNNYGVYTKVGSYLKWIHSYIGERDVSLKSPKL
Vmax(mOD405/min) of rat Protein C activation in the presence of rat thrombin (chromogenic substrate S2366) [1]: 47.1 mOD405/min | Vmax(mOD405/min) of rat Protein C activation in the presence of rat thrombin (chromogenic substrate S2366) [2]: 3.1 mOD405/min | Vmax(mOD405/min) of rat Protein C activation in the presence of rat thrombin (chromogenic substrate S2366) (human sTM variant F376L): TLD
